Measured values: publication PMC7043065 (Cell reports, 2020)

Target: C-X-C motif chemokine 12 (CXCL12) (mouse (endogenous in BM-MSC of C57BL/6 …, UniProt P40224 22-93))
Experiment: cross-linking + co-IP

Chain of C-X-C motif chemokine 12 (CXCL12) (mouse (P40224 22-93): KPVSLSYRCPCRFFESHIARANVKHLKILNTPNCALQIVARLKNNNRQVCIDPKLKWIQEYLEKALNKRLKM

molar interaction ratio of CXCL12/CCL2: > 1
B1: chemokine ligand 2 (CCL2) (natural protein)
chain: not shown
